Biological target: chromatin fibers containing chemically produced H3K9me3 (histone octamers on 12 x 601 array DNA, DA1 or DA2 labelled) (human)

- time constant of the increase of compaction (FRET, DA2) after injection of 1 μM HP1α into flow cells with H3K9me3-modified chromatin fibers: 1.1 s
Substance: Heterochromatin protein 1α (HP1α, CBX5) (from UniProt P45973 1-191) (natural protein)
